Experimental data: patent US20210355194A1

B1: variant 6-63 (Fc fusion)
VHH: EVQLVESGGGLVQPGGSLRLSCAASGQTFNMGWFRQAPGKEREFVAAIGSGGSTSYADSVKGRFTISADNSKNTAYLQMNSLKPEDTAVYYCWRLGNDYFDYWGQGTLVTVSS
B2: variant 6-9 (Fc fusion)
VHH: EVQLVESGGGLVQPGGSLRLSCAASGFTFDYYAMGWFRQAPGKEREFVSAIDSEGRTSYADSVKGRFTISADNSKNTAYLQMNSLKPEDTAVYYCARWGPFDIWGQGTLVTVSS

Key:
Conditions in all cases: remark: other sources report otherwise
[1] = target: T1, CV S-protein construct 6 trimer TP31001F (SARS-CoV-2), P0DTC2; assay: SPR
[2] = target: T1, CV S-protein construct 6 trimer …; assay: SPR; remark: listed apart in the source
[3] = target: SARS-COV2-S1 RBD (mouse IgG2Fc tag) (SARS-CoV-2), P0DTC2; assay: FACS, S1 RBD-mFc on Vero E6 (ACE2)
[4] = target: SARS-COV2-S1 RBD (mouse IgG2Fc tag) (SARS-CoV-2), P0DTC2; assay: FACS, blocks S1 RBD-mFc binding to ACE2 on Vero E6
[5] = target: SARS-COV2-S1 RBD (mouse IgG2Fc tag) (SARS-CoV-2), P0DTC2; assay: column not explained; likely FACS, S1 RBD on Vero E6

Binder | Kd [1] [nM] | Kd [2] [nM] | Competition Factor [3] | IC50 [4] [nM] | MFI Fold Decrease [5] [fold]
B1 | 0.3 | 0.3 | 7.76 | 0.74 | 7.76
B2 | 0.9 | 0.9 |  |  | 
